From paper PMC9482650, “Quantitative fragmentomics allow affinity mapping of interactomes” (Nature Communications, 2022)

Experiments:
Test in all cases: holdup assay
Parameters in all cases: key: below the threshold = too weak to quantify, mostly under pKd 3.1 to 4
[1] = biological target: AHNAK1, Q09666
[2] = biological target: T1, APBA2_1, Q99767
T1 sequence (Q99767 563-664, limits assumed, looked up): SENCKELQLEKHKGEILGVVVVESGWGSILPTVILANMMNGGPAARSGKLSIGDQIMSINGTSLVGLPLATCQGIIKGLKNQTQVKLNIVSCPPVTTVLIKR

[3] = biological target: T2, ARHGEF11, O15085
T2 sequence (O15085 42-136, limits assumed, looked up): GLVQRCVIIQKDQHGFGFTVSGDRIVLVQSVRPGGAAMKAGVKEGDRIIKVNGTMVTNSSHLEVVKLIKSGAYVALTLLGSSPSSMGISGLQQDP

[4] = biological target: T3, DFNB31_1, Q9P202
T3 sequence (Q9P202 135-233, limits assumed, looked up): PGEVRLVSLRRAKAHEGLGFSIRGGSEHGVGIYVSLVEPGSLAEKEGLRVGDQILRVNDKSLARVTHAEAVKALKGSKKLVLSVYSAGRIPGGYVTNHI

[5] = biological target: T4, DFNB31_3, Q9P202
T4 sequence (Q9P202 811-907, limits assumed, looked up): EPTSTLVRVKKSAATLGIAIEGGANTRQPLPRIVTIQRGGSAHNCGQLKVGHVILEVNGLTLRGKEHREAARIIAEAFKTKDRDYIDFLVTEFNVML

[6] = biological target: DLG1_2, Q12959
DLG1_2, Q12959, sequence (Q12959 314-412): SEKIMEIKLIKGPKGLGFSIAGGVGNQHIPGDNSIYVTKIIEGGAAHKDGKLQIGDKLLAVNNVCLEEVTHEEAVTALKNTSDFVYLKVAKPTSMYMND

[7] = biological target: DLG1_3, Q12959
DLG1_3, Q12959, sequence (Q12959 457-571): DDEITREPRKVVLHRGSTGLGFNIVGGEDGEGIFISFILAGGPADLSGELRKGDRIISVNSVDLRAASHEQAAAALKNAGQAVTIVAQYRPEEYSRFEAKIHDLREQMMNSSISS

[8] = biological target: T5, DLG3_1, Q92796
T5 sequence (Q92796 125-227, limits assumed, looked up): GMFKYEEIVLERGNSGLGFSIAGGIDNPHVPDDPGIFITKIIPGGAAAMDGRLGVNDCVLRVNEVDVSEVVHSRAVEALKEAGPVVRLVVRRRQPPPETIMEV

[9] = biological target: HTRA2, O43464
HTRA2, O43464, sequence (O43464 355-458): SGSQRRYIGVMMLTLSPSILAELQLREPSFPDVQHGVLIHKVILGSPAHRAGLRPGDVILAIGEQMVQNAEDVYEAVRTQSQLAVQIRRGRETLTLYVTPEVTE

[10] = biological target: Inadl_1, Q8NI35
Inadl_1, Q8NI35, sequence (Q8NI35 113-229): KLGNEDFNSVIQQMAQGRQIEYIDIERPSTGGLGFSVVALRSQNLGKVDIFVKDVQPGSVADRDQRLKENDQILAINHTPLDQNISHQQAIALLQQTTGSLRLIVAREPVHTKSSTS

[11] = biological target: Inadl_9, Q8NI35
Inadl_9, Q8NI35, sequence (Q8NI35 1530-1615): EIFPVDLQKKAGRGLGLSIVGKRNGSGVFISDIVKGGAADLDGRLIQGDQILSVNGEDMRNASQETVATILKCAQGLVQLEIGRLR

[12] = biological target: T6, LIN7C, Q9NUP9
T6 sequence (Q9NUP9 88-185, limits assumed, looked up): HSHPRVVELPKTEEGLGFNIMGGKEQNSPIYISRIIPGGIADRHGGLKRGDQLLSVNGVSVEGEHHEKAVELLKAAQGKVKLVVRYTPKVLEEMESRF

[13] = biological target: LNX1_3, Q8TBB1
LNX1_3, Q8TBB1, sequence (Q8TBB1 500-596): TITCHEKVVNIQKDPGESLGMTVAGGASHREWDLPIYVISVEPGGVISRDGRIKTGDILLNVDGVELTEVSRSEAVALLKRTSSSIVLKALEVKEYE

[14] = biological target: T7, LRRC7, Q96NW7
T7 sequence (Q96NW7 1440-1537, limits assumed, looked up): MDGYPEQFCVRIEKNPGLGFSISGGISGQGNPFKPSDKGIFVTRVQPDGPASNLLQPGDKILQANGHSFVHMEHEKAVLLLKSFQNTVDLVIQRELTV

[15] = biological target: MAGI1_1, Q96QZ7
MAGI1_1, Q96QZ7, sequence (Q96QZ7 1-106): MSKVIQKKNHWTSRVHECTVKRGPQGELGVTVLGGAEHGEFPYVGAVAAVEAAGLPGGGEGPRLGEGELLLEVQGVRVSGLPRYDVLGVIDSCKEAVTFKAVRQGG

[16] = biological target: MAGI2_6, Q86UL8
MAGI2_6, Q86UL8, sequence (Q86UL8 1141-1229): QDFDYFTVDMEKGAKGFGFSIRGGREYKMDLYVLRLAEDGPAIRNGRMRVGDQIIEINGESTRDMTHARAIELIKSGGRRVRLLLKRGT

[17] = biological target: MAST2, Q6P0Q8
MAST2, Q6P0Q8, sequence (Q6P0Q8 1099-1202): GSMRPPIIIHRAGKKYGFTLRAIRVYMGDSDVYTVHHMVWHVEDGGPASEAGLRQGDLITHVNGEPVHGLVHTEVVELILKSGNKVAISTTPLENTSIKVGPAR

[18] = biological target: T8, MPDZ_12, O75970
T8 sequence (O75970 1857-1958, limits assumed, looked up): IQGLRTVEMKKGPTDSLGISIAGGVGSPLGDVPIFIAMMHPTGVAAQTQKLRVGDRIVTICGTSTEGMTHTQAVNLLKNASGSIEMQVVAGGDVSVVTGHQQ

[19] = biological target: NHERF2_2, Q15599
NHERF2_2, Q15599, sequence (Q15599 142-238): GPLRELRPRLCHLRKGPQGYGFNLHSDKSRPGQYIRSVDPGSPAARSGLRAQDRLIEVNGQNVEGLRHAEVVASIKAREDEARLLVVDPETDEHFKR

[20] = biological target: T9, NHERF3_4, Q5T2W1
T9 sequence (Q5T2W1 373-468, limits assumed, looked up): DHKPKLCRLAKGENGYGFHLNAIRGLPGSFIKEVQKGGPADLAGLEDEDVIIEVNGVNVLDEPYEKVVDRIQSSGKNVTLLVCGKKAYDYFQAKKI

[21] = biological target: NHERF4_2, Q86UT5
NHERF4_2, Q86UT5, sequence (Q86UT5 220-308): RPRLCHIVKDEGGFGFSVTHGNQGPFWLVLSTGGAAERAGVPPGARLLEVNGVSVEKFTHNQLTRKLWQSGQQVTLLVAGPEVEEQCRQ

[22] = biological target: NHERF4_4, Q86UT5
NHERF4_4, Q86UT5, sequence (Q86UT5 464-550): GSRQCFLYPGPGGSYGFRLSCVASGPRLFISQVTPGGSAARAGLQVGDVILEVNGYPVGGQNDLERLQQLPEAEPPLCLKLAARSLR

[23] = biological target: T10, PDZRN3_1, Q9UPQ7
T10 sequence (Q9UPQ7 244-349, limits assumed, looked up): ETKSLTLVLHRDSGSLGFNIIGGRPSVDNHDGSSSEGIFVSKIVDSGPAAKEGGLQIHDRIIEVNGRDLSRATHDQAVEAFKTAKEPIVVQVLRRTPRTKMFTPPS

[24] = biological target: T11, PTPN13_1, Q12923
T11 sequence (Q12923 1088-1188, limits assumed, looked up): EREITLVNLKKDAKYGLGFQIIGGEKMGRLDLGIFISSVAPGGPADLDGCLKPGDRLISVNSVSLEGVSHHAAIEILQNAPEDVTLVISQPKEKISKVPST

[25] = biological target: T12, TIAM2, Q8IVF5
T12 sequence (Q8IVF5 885-986, limits assumed, looked up): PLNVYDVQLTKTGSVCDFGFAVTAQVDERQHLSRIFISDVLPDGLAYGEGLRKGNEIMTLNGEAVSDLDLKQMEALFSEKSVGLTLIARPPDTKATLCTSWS

[26] = biological target: TJP1_3, Q07157
TJP1_3, Q07157, sequence (Q07157 416-512): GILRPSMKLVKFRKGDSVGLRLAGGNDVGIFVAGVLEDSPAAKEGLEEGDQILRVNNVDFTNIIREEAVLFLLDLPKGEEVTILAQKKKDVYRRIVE

[27] = plain residues with an end cap or a label only (N-terminal biotin on a linker: ado-ado)
[28] = plain residues with an end cap or a label only (N-terminal biotin on a linker: (peg)3)

AHNAK1, Q09666, sequence (Q09666 4-100): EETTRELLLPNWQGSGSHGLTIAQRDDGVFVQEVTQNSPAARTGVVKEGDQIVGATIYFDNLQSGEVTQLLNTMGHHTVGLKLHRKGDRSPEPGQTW

B1: ADRB1, P08588 (peptide)
chain: RPGFASESKV
pKd [1, 27]: below the threshold
pKd [2, 27]: below the threshold
pKd [3, 27]: 4.05
pKd [4, 27]: 4.21
pKd [5, 27]: below the threshold
pKd [6, 27]: 4.49
pKd [7, 27]: below the threshold
pKd [8, 27]: 3.62
pKd [9, 27]: below the threshold
pKd [10, 27]: below the threshold
pKd [11, 27]: 3.47
pKd [12, 27]: below the threshold
pKd [13, 27]: below the threshold
pKd [14, 27]: 3.59
pKd [15, 27]: below the threshold
pKd [16, 27]: below the threshold
pKd [17, 27]: 5.01
pKd [18, 27]: below the threshold
pKd [19, 27]: below the threshold
pKd [20, 27]: below the threshold
pKd [21, 27]: below the threshold
pKd [22, 27]: below the threshold
pKd [23, 27]: 3.92
pKd [24, 27]: below the threshold
pKd [25, 27]: below the threshold
pKd [26, 27]: below the threshold

B2: PLEKHH2, Q8IVE3 (peptide)
chain: SRPTKGPTLL
pKd [1, 27]: below the threshold
pKd [2, 27]: below the threshold
pKd [3, 27]: 3.85
pKd [4, 27]: below the threshold
pKd [5, 27]: 3.5
pKd [6, 27]: 3.82
pKd [7, 27]: below the threshold
pKd [8, 27]: below the threshold
pKd [9, 27]: below the threshold
pKd [10, 27]: below the threshold
pKd [11, 27]: 3.5
pKd [12, 27]: below the threshold
pKd [13, 27]: below the threshold
pKd [14, 27]: below the threshold
pKd [15, 27]: below the threshold
pKd [16, 27]: below the threshold
pKd [17, 27]: 5.06
pKd [18, 27]: below the threshold
pKd [19, 27]: below the threshold
pKd [20, 27]: 3.65
pKd [21, 27]: below the threshold
pKd [22, 27]: 3.89
pKd [23, 27]: 3.69
pKd [24, 27]: below the threshold
pKd [25, 27]: below the threshold
pKd [26, 27]: below the threshold

B3: GJD2, Q9UKL4 (peptide)
chain: RTQSSDSAYV
pKd [1, 27]: below the threshold
pKd [2, 27]: below the threshold
pKd [3, 27]: 4.21
pKd [4, 27]: below the threshold
pKd [5, 27]: below the threshold
pKd [6, 27]: 3.88
pKd [7, 27]: below the threshold
pKd [8, 27]: below the threshold
pKd [9, 27]: below the threshold
pKd [10, 27]: below the threshold
pKd [11, 27]: 3.85
pKd [12, 27]: below the threshold
pKd [13, 27]: 3.47
pKd [14, 27]: below the threshold
pKd [15, 27]: below the threshold
pKd [16, 27]: 3.58
pKd [17, 27]: 4.17
pKd [18, 27]: below the threshold
pKd [19, 27]: 3.49
pKd [20, 27]: 3.54
pKd [21, 27]: below the threshold
pKd [22, 27]: below the threshold
pKd [23, 27]: below the threshold
pKd [24, 27]: below the threshold
pKd [25, 27]: below the threshold
pKd [26, 27]: below the threshold

B4: APBA1, Q02410 (peptide)
chain: LTAQEQPVYI
pKd [1, 27]: below the threshold
pKd [2, 27]: below the threshold
pKd [3, 27]: 4.21
pKd [4, 27]: below the threshold
pKd [5, 27]: 3.5
pKd [6, 27]: below the threshold
pKd [7, 27]: below the threshold
pKd [8, 27]: below the threshold
pKd [9, 27]: 3.53
pKd [10, 27]: below the threshold
pKd [11, 27]: 4.6
pKd [12, 27]: below the threshold
pKd [13, 27]: below the threshold
pKd [14, 27]: below the threshold
pKd [15, 27]: below the threshold
pKd [16, 27]: below the threshold
pKd [17, 27]: below the threshold
pKd [18, 27]: below the threshold
pKd [19, 27]: below the threshold
pKd [20, 27]: below the threshold
pKd [21, 27]: below the threshold
pKd [22, 27]: below the threshold
pKd [23, 27]: below the threshold
pKd [24, 27]: below the threshold
pKd [25, 27]: 4.01
pKd [26, 27]: below the threshold

B5: SARS-Cov2-3a, P0DTC3 (peptide)
chain: YDEPTTTTSVPL
pKd [1, 28]: 3.77
pKd [2, 28]: below the threshold
pKd [3, 28]: below the threshold
pKd [4, 28]: below the threshold
pKd [5, 28]: below the threshold
pKd [6, 28]: below the threshold
pKd [7, 28]: below the threshold
pKd [8, 28]: below the threshold
pKd [9, 28]: below the threshold
pKd [10, 28]: below the threshold
pKd [11, 28]: below the threshold
pKd [12, 28]: below the threshold
pKd [13, 28]: below the threshold
pKd [14, 28]: below the threshold
pKd [15, 28]: below the threshold
pKd [16, 28]: below the threshold
pKd [17, 28]: below the threshold
pKd [18, 28]: below the threshold
pKd [19, 28]: below the threshold
pKd [20, 28]: 4.29
pKd [21, 28]: below the threshold
pKd [22, 28]: below the threshold
pKd [23, 28]: below the threshold
pKd [24, 28]: below the threshold
pKd [25, 28]: below the threshold
pKd [26, 28]: below the threshold
